From paper PMC12433258, “Binding Differences of the Peptide‐Substrate–Binding Domain of Collagen Prolyl 4‐Hydroxylases I and II for Proline‐ and Hydroxyproline‐Rich Peptides” (Proteins, 2025)

Experiments:
[1] = molecular target: PSB‐I^143–238 construct (peptide‐substrate–binding domain of the α‐I subunit of human collagen prolyl 4‐hydroxylase I) (human) (UniProt P13674); test: ITC; 3 mM peptide titrated into 50 μM PSB‐I^143–238 in the cell; 20 mM Bis‐Tris, 100 mM glycine, pH 6.8; 25°C; one‐set‐of‐sites model with fixed stoichiometry (n = 1); three measurements
[2] = molecular target: PSB‐II^142–236 construct (peptide‐substrate–binding domain of the α‐II subunit of human collagen prolyl 4‐hydroxylase II) (human) (UniProt O15460); test: ITC; 3 mM peptide titrated into 50 μM PSB‐II in the cell; 20 mM Tris, 50 mM NaCl, 50 mM glycine, pH 8.0; 25°C; one‐set‐of‐sites model with fixed stoichiometry (n = 1); three measurements
PSB‐II^142–236 construct (peptide‐substrate–binding domain of the α‐II subunit of human collagen prolyl 4‐hydroxylase II) (human), sequence (O15460 163-257): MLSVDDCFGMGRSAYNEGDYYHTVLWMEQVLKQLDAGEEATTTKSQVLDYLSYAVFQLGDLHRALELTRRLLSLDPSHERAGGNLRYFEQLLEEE

PSB‐I^143–238 construct (peptide‐substrate–binding domain of the α‐I subunit of human collagen prolyl 4‐hydroxylase I) (human), sequence (P13674 160-255): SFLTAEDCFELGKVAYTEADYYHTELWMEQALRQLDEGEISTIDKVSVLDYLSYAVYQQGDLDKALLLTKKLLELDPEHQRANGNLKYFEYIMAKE

Work on POG‐PAG‐POG peptide yielded a Kd [1] of 79.6 µM, a dH [1] of -12.7 kcal/mol and a Kd [2] of 26.2 µM.
